Source: patent US9096835B2, “DNA polymerase” (Medical Research Council, priority 2003, dated 2015)
“And” between values parts separate entries of the source, which are not always exact repeats. Equal values may be shown once. “Also recorded” adds a separate entry of the source.

Tests used:
Type in all cases: biochemical
[1] = tested on: template containing a cis-syn cyclobutane thymine-thymine dimer (CPD); test: Translesion replication assay (primer extension), CPD; settings: gel-extension assay, 60° C.
Method: (§1) Template primers 22 (undamaged) or 23 (containing a synthetic abasic site) were synthesized by Lofstrand Laboratories (Gaithersburg, Md.). Template primer 24 (containing a single cis-syn thymine dimer), was synthesized as described (34). Primer 25 was ^32P-labeled and annealed to one of the three templates 22, 23, 24 (at a primer template ratio of molar 1:1.5) and extended in 40 mM Tris.HCl at pH 8.0, 5 mM MgCl2, 100 μM of each dNTP, 10 mM DTT, 250 μg/ml BSA, 2.5% glycerol, 10 nM primer-template DNA and 0.1 Unit of polymerase at 60° C. for various times.
(§2) Primer extension assays were essentially as described in (Ghadessy et al., 2004). Briefly, undamaged oligonucleotides and a 51mer containing a synthetic abasic site were synthesized by Lofstrand Laboratories (Gaithersburg, Md.) using standard techniques and were gel purified prior to use. A 20mer primer (LES—20 P) with the sequence 5′-[…]-3′ (SEQ ID NO: 99) was 5′-labeled with [^32P]ATP (5000 Ci/mmole; 1 Ci=37 GBq) (Pharmacia) using T4 polynucleotide kinase (Invitrogen, Carlsbad Calif.). Radiolabeled primer-template DNAs were prepared by annealing the 5′[^32P] labeled 20mer primer to one of the two following 51mer templates (at a primer template ratio of molar 1:1.5). 1) undamaged DNA (UNDT51T); 5′-AGCTACCATGCCTGCACGAATTCGGCATCCGTCGCGACCACGGTCGCAGCG-3′ (SEQ ID NO: 100); 2) an oligo (LABA51T) containing a synthetic abasic site (indicated as an X in bold font); 5′-AGCTACCATGCCTGCACGACA XCG GCATCCGTCGCGACCACGGTCGCAGCG-3′ (SEQ ID NO: 101). Standard replication reactions of 10 contained 40 mM Tris.HCl at pH 8.0, 5 mM MgCl2, 100 μM of each ultrapure dNTP (Amersham Pharmacia Biotech, NJ), 10 mM DTT, 250 μg/ml BSA, 2.5% glycerol, 10 nM 5′[32P] primer-template DNA and 0.1 Unit of polymerase. After incubation at 60° C. for various times reactions were terminated by the addition of 10 μl of 95% formamide/10 mM EDTA and the samples heated to 100° C. for 5 min. Reaction mixtures (5 μl) were subjected to 20% polyacrylamide/7 M Urea gel electrophoresis and replication products visualized by PhosphorImager analysis.

[2] = tested on: template containing an abasic site; test: Translesion replication assay (primer extension), abasic site; settings: gel-extension assay, 60° C.
Method: as §1, §2

[3] = tested on: primer-template duplex, correct or incorrect incoming dNTP; test: Steady-state single nucleotide incorporation kinetics, gel-based assay
Method: Kinetic parameters were determined using a gel-based assay essentially as described (16). Primers 15, 16, 17 (3′ base=G, C, A respectively) were ^32P-labeled and annealed to one of template strands 18, 19, 20 (template base=C, G, A respectively) or 21 (template base C different context). Duplex substrates were used at 50 nM final concentration in 1× Taq buffer with various concentrations of enzyme and dNTP. Reactions were carried out at 60° C. for times whereby <20% of primer-template was utilized at the highest concentration of dNTP.
Extension and incorporation kinetics of M1 and M4 for a selection of mismatches were measured using a gel-based steady-state kinetic assay (Goodman) (Tables 1 & 2). M1 and M4 respectively extend a C•C mispair 390 and 75-fold more efficiently than wtTaq. […] The gain in extension efficiency derives predominantly from increased relative Vmax values for the mutant polymerases, while Km for nucleotide substrates remains largely unchanged. For most DNA polymerases the relative efficiency of extending a given mispair (f0ext) is similar to the relative efficiency of forming it (finc) (Goodman 1993, Goodman 1990, Washington 2001). Indeed, M1 and M4 respectively incorporate dCTP opposite template base C 206- and 29-fold more efficiently than wtTaq (Table 2).

[4] = tested on: template containing a single 5-nitroindole; test: 5NI replication assay; settings: primer extension, 60° C.
Method: Primer 26 was ^32P-labeled and annealed to template primer 27 (containing a single 5-nitroindole) in 1× Taq buffer, 0.1 or 0.5 U of the polymerase was added and reactions incubated at 60° C. for 15 mins, after which 40 μM of each dNTP were added and incubation at 60° C. continued for various times.

[5] = base pair C: dCTP (template base: incoming nucleotide)
[6] = base pair C: dGTP (template base: incoming nucleotide), correct dNTP
[7] = base pair C: dGTP, correct dNTP
[8] = base pair G: dATP (template base: incoming nucleotide)
[9] = base pair G: dCTP (template base: incoming nucleotide), correct dNTP
[10] = base pair G: dCTP, correct dNTP
[11] = base pair G: dGTP (template base: incoming nucleotide)
[12] = base pair G: dTTP (template base: incoming nucleotide)

B1: M4: Taq mutant D58G, R74P, A109T, L245R, R343G, G370D, E520G, N583S, E694K, A743P; SEQ ID NO 2 (protein)
chain: MRGMLPLYEPKGRVLLVDGHHLAYRTFHALKGLTTSRGEPVQAVYGFAKSLLKALKEGGDAVIVVFDAKAPSFPHEAYGGYKAGRAPTPEDFPRQLALIKELVDLLGLTRLEVPGYEADDVLASLAKKAEKEGYEVRILTADKDLYQLLSDRIHVLHPEGYLITPAWLWEKYGLRPDQWADYRALTGDESDNLPGVKGIGEKTARKLLEEWGSLEALLKNLDRLKPAIREKILAHMDDLKLSWDRAKVRTDLPLEVDFAKRREPDRERLRAFLERLEFGSLLHEFGLLESPKALEEAPWPPPEGAFVGFVLSRKEPMWADLLALAAARGGRVHRAPEPYKALGDLKEARGLLAKDLSVLALREGLGLPPDDDPMLLAYLLDPSNTTPEGVARRYGGEWTEEAGERAALSERLFANLWGRLEGEERLLWLYREVERPLSAVLAHMEATGVRLDVAYLRALSLEVAEEIARLEAEVFRLAGHPFNLNSRDQLERVLFDELGLPAIGKTEKTGKRSTSAAVLGALREAHPIVEKILQYRELTKLKSTYIDPLPDLIHPRTGRLHTRFNQTATATGRLSSSDPNLQSIPVRTPLGQRIRRAFIAEEGWLLVALDYSQIELRVLAHLSGDENLIRVFQEGRDIHTETASWMFGVPREAVDPLMRRAAKTINFGVLYGMSAHRLSQELAIPYEEAQAFIKRYFQSFPKVRAWIEKTLEEGRRRGYVETLFGRRRYVPDLEARVKSVREPAERMAFNMPVQGTAADLMKLAMVKLFPRLEEMGARMLLQVHDELVLEAPKERAEAVARLAKEVMEGVYPLAVPLEVEVGIGEDWLSAKE
modifications: Mutant Thermus aquaticus DNA polymerase
Which “CPD bypass in primer extension” value [1] does the source give for B1 here?
The value was “able to readily extend all of the primer to the 3′T of the dimer”.

What about the “abasic site bypass in primer extension” value [2] of the same molecule?
The value was “able to extend past the lesion and to the end of the template”.

And the Km ([3]; base pair C: dCTP)?
The Km was 1390 µM.

What about the “Ratio of finc, finc (mutant polymerase)/finc (wtTaq)” value (“Ratio of finc, finc” for short) ([3]; base pair C: dCTP) of the same molecule?
The value was 29 and 29.22.

And the “finc, f (incorrect dNTP)/f (correct dNTP)” value (“finc, f (incorrect dNTP)/f” below) ([3]; base pair C: dCTP)?
Its value is 1.13 × 10^−6.

And the Vmax [3, 5]?
Its Vmax is 52.63 % Min^−1.

And the Vmax [3, 6]?
The Vmax was 335.42 % Min^−1.

And the Km [3, 7]?
The Km was 0.01 µM.

And the Km ([3]; base pair G: dATP)?
Its Km is 158 µM.

And the “Ratio of finc, finc” value ([3]; base pair G: dATP)?
The value was 2.18.

And the “finc, f (incorrect dNTP)/f” value ([3]; base pair G: dATP)?
Its value is 1.80 × 10^−4.

And the Vmax [3, 8]?
The Vmax was 1935.48 % Min^−1.

What about the Vmax [3, 9] of the same molecule?
Its Vmax is 817 % Min^−1.

What about the Km [3, 10] of the same molecule?
Its Km is 0.012 µM.

And the Km ([3]; base pair G: dGTP)?
The Km was 82.3 µM.

What about the “Ratio of finc, finc” value ([3]; base pair G: dGTP) of the same molecule?
The value was 68.82.

And the “finc, f (incorrect dNTP)/f” value ([3]; base pair G: dGTP)?
The value was 1.17 × 10^−4.

What about the Vmax [3, 11] of the same molecule?
Its Vmax is 656.46 % Min^−1.

And the Km ([3]; base pair G: dTTP)?
The Km was 5.1 µM.

What about the “Ratio of finc, finc” value ([3]; base pair G: dTTP) of the same molecule?
The value was 1.1.

What about the “finc, f (incorrect dNTP)/f” value ([3]; base pair G: dTTP) of the same molecule?
The value was 1.82 × 10^−4.

And the Vmax [3, 12]?
The Vmax was 63.20 % Min^−1.

And the “bypass of template strand 5NI” value [4]?
The value was “efficiently bypass template strand 5NI”.

B2: M1: Taq mutant G84A, D144G, K314R, E520G, F598L, A608V, E742G; SEQ ID NO: 1 (protein)
chain: MRGMLPLFEPKGRVLLVDGHHLAYRTFHALKGLTTSRGEPVQAVYGFAKSLLKALKEDGDAVIVVFDAKAPSFRHEAYGGYKAARAPTPEDFPRQLALIKELVDLLGLARLEVPGYEADDVLASLAKKAEKEGYEVRILTADKGLYQLLSDRIHVLHPEGYLITPAWLWEKYGLRPDQWADYRALTGDESDNLPGVKGIGEKTARKLLEEWGSLEALLKNLDRLKPAIREKILAHMDDLKLSWDLAKVRTDLPLEVDFAKRREPDRERLRAFLERLEFGSLLHEFGLLESPKALEEAPWPPPEGAFVGFVLSRREPMWADLLALAAAAGGRVHRAPEPYKALRDLKEARGLLAKDLSVLALREGLGLPPGDDPMLLAYLLDPSNTTPEGVARRYGGEWTEEAGERAALSERLFANLWGRLEGEERLLWLYREVERPLSAVLAHMEATGVRLDVAYLRALSLEVAEEIARLEAEVFRLAGHPFNLNSRDQLERVLFDELGLPAIGKTEKTGKRSTSAAVLGALREAHPIVEKILQYRELTKLKSTYIDPLPDLIHPRTGRLHTRFNQTATATGRLSSSDPNLQNIPVRTPLGQRIRRAFIAEEGWLLVVLDYSQIELRVLAHLSGDENLIRVFQEGRDIHTETASWMFGVPREAVDPLMRRAAKTINFGVLYGMSAHRLSQELAIPYEEAQAFIERYFQSFPKVRAWIEKTLEEGRRRGYVETLFGRRRYVPDLEARVKSVRGAAERMAFNMPVQGTAADLMKLAMVKLFPRLEEMGARMLLQVHDELVLEAPKERAEAVARLAKEVMEGVYPLAVPLEVEVGIGEDWLSAKE
modifications: Mutant Thermus aquaticus DNA polymerase
What does the source list for B2?
CPD bypass in primer extension [1]: able to readily extend all of the primer to the 3′T of the dimer; abasic site bypass in primer extension [2]: able to extend past the lesion and to the end of the template; also recorded: capable of both insertion opposite the abasic site and lesion bypass; Km ([3]; base pair C: dCTP): 264 µM; Ratio of finc, finc (mutant polymerase)/finc (wtTaq) ([3]; base pair C: dCTP): 206 and 206.74; finc, f (incorrect dNTP)/f (correct dNTP) ([3]; base pair C: dCTP): 7.97 × 10^−6; Vmax [3, 5]: 6.08 % Min^−1; Vmax [3, 6]: 111.66 % Min^−1; Km [3, 7]: 0.0387 µM; Km ([3]; base pair G: dATP): 257 µM; Ratio of finc, finc (mutant polymerase)/finc (wtTaq) ([3]; base pair G: dATP): 2.08; finc, f (incorrect dNTP)/f (correct dNTP) ([3]; base pair G: dATP): 1.72 × 10^−4; Vmax [3, 8]: 681.82 % Min^−1; Vmax [3, 9]: 308 % Min^−1; Km [3, 10]: 0.02 µM; Km ([3]; base pair G: dGTP): 377 µM; Ratio of finc, finc (mutant polymerase)/finc (wtTaq) ([3]; base pair G: dGTP): 21.88; finc, f (incorrect dNTP)/f (correct dNTP) ([3]; base pair G: dGTP): 3.72 × 10^−5; Vmax [3, 11]: 215.98 % Min^−1; Km ([3]; base pair G: dTTP): 1.65 µM; Ratio of finc, finc (mutant polymerase)/finc (wtTaq) ([3]; base pair G: dTTP): 2.43; finc, f (incorrect dNTP)/f (correct dNTP) ([3]; base pair G: dTTP): 4.01 × 10^−4; Vmax [3, 12]: 10.19 % Min^−1; bypass of template strand 5NI [4]: efficiently bypass template strand 5NI
